These results are taken from patent publication US20240252641A1 (TCR2 THERAPEUTICS, published 2024).

One may read the Kd as the equilibrium constant for the complex coming apart.

Assay [1] has as its target T1, human CD70, recombinant, N-terminally biotinylated (residues 39-193) (human, UniProt P32970 39-193, N-terminal biotin).
T1 construct: range 39-193; the same entry is used there; also called biotinylated human CD70; CD70 biotin
T1 sequence (looked up): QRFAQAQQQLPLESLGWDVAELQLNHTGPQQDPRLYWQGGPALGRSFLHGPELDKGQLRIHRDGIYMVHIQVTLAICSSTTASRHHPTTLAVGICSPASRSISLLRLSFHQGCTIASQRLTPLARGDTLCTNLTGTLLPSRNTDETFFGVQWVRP
The assay is described as follows: SPR. Summed up:
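The scFv antibodies are human and were isolated by panning a naïve human library on the extracellular domain of CD70 (aa39-193). Their affinity (Kd) was measured by surface plasmon resonance analysis. The binding partner was recombinant human antigen biotinylated at the N-terminus.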
Background: Surface plasmon resonance follows binding to a sensor surface in real time, without labels.

Assay [2] has as its target T1, human CD70, recombinant, N-terminally …. Nature of the assay: CD27 blocking ELISA, 3 µM scFv, strep/HRP. In general terms: In an ELISA, binding on a coated surface is turned into a signal by an enzyme label.
Assay [3] has the same target. The assay is described as follows: CD27 blocking ELISA, 3 µM scFv, anti-His/HRP. Note: unit not given here. The procedure: Human scFv antibodies binding CD70 were generated by panning a naïve human library with the extracellular domain (aa39-193) of CD70. 53 antibodies were identified. The ability of CD27 to block CD70 binding of the identified antibodies was measured by ELISA using two different assays. In the first assay, CD27 and his-tagged scFv anti-CD70 binders were simultaneously added to surface bound CD70, and the ability of the scFv binders to bind CD70 was detected with anti-His HRP. In the second assay, plate-bound CD70 was pre-incubated with CD27 for 30 minutes, and then additional CD27 and the his-tagged scFv anti-CD70 binder was added. The ability of the scFv binders to bind CD70 was detected with anti-His HRP. FIG. 34 is a schematic of the two different CD27 blocking assays. CD70 affinity was also measured by SPR analysis. scFv antibodies were also tested for their ability to bind tumor cell lines with high (CHO-CD70, JVM3, and U266) and low levels (CHO WT and K562 of CD70 expression. Results for 39 antibodies are shown in Table 1 below.

The target in assay [4] is T2, CD70 on cells (CHO-CD70, JVM-3, U266, Raji, THP-1, T cells) (human, UniProt P32970 1-193).
T2 construct: whole, on cells; also called cell-surface CD70
T2 sequence (looked up): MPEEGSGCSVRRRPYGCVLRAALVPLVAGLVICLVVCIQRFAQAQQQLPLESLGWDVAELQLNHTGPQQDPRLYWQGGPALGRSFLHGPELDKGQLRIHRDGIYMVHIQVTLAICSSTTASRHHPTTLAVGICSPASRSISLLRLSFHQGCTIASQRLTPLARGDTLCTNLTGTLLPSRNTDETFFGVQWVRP
Nature of the assay: 1.25 µg/mL scFv on CHO-CD70 cells. In short, it runs like this:
(§1)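 Human scFv antibodies came from panning a naïve human library against the CD70 extracellular domain (aa39-193). Binding was recorded for each tumour cell line, both high CD70 expressors (CHO-CD70, JVM3, U266) and low CD70 expressors (CHO WT, K562). No detection method is stated.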

Assay [5] has as its target T2, CD70 on cells (CHO-CD70, JVM-3, U266, …). The assay is described as follows: 1.25 µg/mL scFv on JVM-3 cells. Summed up: as §1
Assay [6] shares this target. The assay is described as follows: 1.25 µg/mL scFv on U266 cells. In short, it runs like this:
as §1

B1: 16-TC4-I-C11 (scFv)
scFv: QVQLVQSGAEVKKPGSSVKVSCKASGGTFSSYAISWVRQAPGQGLEWMGWISAYNGNTNYAQKLQGRVTMTTDTSTSTAYMELRSLRSDDTAVYYCARVTPPGWLGNMDVWGKGTTVTVSSGGSGGSGGSGGSSYELMQSPSVSVAPGQTARITCGGRDIGSKSVHWYQQKPGQAPVLVVYDDSDRPSGIPERLSGSNFGNEATLTISRVEAGDEGDYFCQVWDSSTDVVFGGGTKVTVL
notes: His-tagged
For the molecule B1, in assay [1], the Kd turned out to be 40.2 nM. In addition, the strep/HRP in assay [2] is 1.43. Moreover, the “anti His/HRP” value in assay [3] worked out at 2.1. In addition, the cell binding in assay [4] is 660000; in assay [5] it was 103000; in assay [6], 51000.

B2: 60-TC7-VII-C02 (scFv)
scFv: QVQLQQWGAGLLKPSETLSLTCAVYGGSFSGYYWSWIRQPPGKGLEWIGEINHSGSTNYNPSLKSRVTISVDTSKNQFSLKLSSVTAADTAVYYCARSPLWFGPPDAFDIWGQGTMVTVSSGGSGGSGGSGGSQSALTQPPSASGSPGQSVSISCTGTSSDVGGYNYVSWYQQHPGKAPKLIIYDVDKRPSGIPERFSGSNSGNTATLTISGTQAMDEADYYCQAWDSSTEVVFGGGTKVTVL
notes: His-tagged
For B2, the dissociation constant Kd in assay [1] turned out to be 135 nM. For the same molecule, the strep/HRP in assay [2] came out at 1.58. Moreover, in assay [3], the “anti His/HRP” value was determined as 1.27. Further, the cell binding in assay [4] is 458000; in assay [5] it was 10800; in assay [6] it was 5040.

B3: 39-TC6-IV-B08 (scFv)
scFv: QVQLVESGGGVVQPGGSLRLSCAASGFTFSSYAMHWVRQAPGKGLEWVAVISYDGSNKYYADSVKGRFTISRDNSKNTLYLQMNSLRAEDTAVYYCARDGHPYYYGMDVWGQGTTVTVSSGGSGGSGGSGGSQSALTQPASVSGSPGQSITISCTGTSSDVGDYNYVSWYQHHPGKAPKLMIYDVSNRPSGVSNRFSGSKSGNTASLTISGLQAEDEADYYCGSYTGSDTWVFGGGTKVTVL
notes: His-tagged; also called 1885
For the molecule B3, the Kd in assay [1] was 2890 nM. In addition, the strep/HRP in assay [2] is 0.268. For the same molecule, the “anti His/HRP” value in assay [3] was 2.97. Also, the figures for the cell binding in assay [4], in assay [5] and in assay [6] were 52200, 25300 and 35900, respectively.

B4: 50-TC7-III-A11 (scFv)
scFv: QVQLVQSGAEVKRPGASVKVSCKASGYTFTSYYMHWVRQAPGQGLEWMGIINPSGGSTSYAQKFQGRVTMTRDTSTSTVYMELSSLRSEDTAVYYCAIEPGYCSGGSCYPDAFDIWGQGTTVTVSSGGSGGSGGSGGSQSVLTQPPSASGTPGQRVTISCSGSSSNIGSDYVYWYQRVPGTAPKLLIYRDNQRPSGVPDRFSGSKSGTSASLAISGLRSDDEADYYCAAWDDSLSGWVFGGGTKVTVL
notes: His-tagged; also called 1985
Regarding B4, the Kd in assay [1] came out at 4190 nM. Besides, the strep/HRP in assay [2] stood at 0.868. Also, the “anti His/HRP” value in assay [3] was 2.25. Moreover, the cell binding in assay [4] turned out to be 122000; in assay [5], 12200; in assay [6], 45000.

B5: 4-TC4-I-G08 (scFv)
scFv: QVQLVQSGGGVVQPGRSLRLSCAASGFTFSSYAMHWVRQAPGKGLEWVAVISYDGSNKYYADSVKGRFTISRDNAKNSLYLQMNSLRDEDTAVYYCARDESFDYGVDVWGKGTTVTVSSGGSGGSGGSGGSSSELTQDPAVSVALGQTVRITCQGDSLRSYYASWYQQKPGQAPVLVIYGKNNRPSGIPDRFSGSSSGNTASLTITGAQAEDEADYYCNSRDSSGNHLVVFGGGTKLTVL
notes: His-tagged
In the case of B5, in assay [1], the Kd was 1410 nM. In assay [2], the strep/HRP was found to be 1.03. The “anti His/HRP” value in assay [3] came out at 2.29. In addition, the cell binding amounted to 387000 in assay [4], 34000 in assay [5] and 23500 in assay [6].

B6: 42-TC4-VII-G08 (scFv)
scFv: QVQLVQSGGGVVQPGRSLRLSCAASGFTFSSYAMHWVRQAPGKGLEWVAVISYDGSNKYYADSVKGRFTISRDNSKNTLYLQMNSLRAEDTAVYYCARDLSYDYGFDYWGQGTLVTVSSGGSGGSGGSGGSSSELTQDPAVSVALGQTVRITCQGDSLRSYYASWYQQKPGQAPVLVIYGKNNRPSGIPDRFSGSSSGNTASLTITGAQAEDEADYYCNSRDSSGNHLVVFGGGTKVTVL
notes: His-tagged
For the molecule B6, the dissociation constant Kd in assay [1] worked out at 179 nM. Further, the strep/HRP in assay [2] came out at 1.11. Moreover, in assay [3], the “anti His/HRP” value came to 2.34. The cell binding in assay [4] amounted to 364000; in assay [5], 33900; in assay [6] it was 13100.

B7: 49-TC4-XVI-F01 (scFv)
scFv: QVQLVESGGGVVQPGRSLRLSCAASGFTFSSYAMHWVRQAPGKGLEWVAVISYDGSNKYYADSVKGRFTISRDNSKNTLYLQMNSLRAEDTAVYYCARDSTQDYGMDVWGQGTMVTVSSGGSGGSGGSGGSSSELTQDPAVSVALGQTVRITCQGDSLRNYYASWYQQKPGQAPVLVFYGKNNRPSGIPDRFSGSSSGNTASLTITGAQAEDEADYYCNSRDSSGNHLVVFGGGTKLTVL
notes: His-tagged
Turning to B7, in assay [1], the Kd came out at 1060 nM. In addition, in assay [2], the strep/HRP came to 1.29. The “anti His/HRP” value in assay [3] stood at 2.12. The cell binding was 134000 in assay [4], 5410 in assay [5] and 2980 in assay [6].

B8: 32-TC1.2-I-F07-6 (scFv)
scFv: QVQLVQSGAEVKKPGESLKISCKGSGYSFTSYWIGWVRQMPGKGLEWMGIIYPGESDTRYSPSFQGQVTISADKSISTAYLQWSSLKASDTAMYYCARRNYYDRSGYVDAFDIWGQGTMVTVSSGGSGGSGGSGGSSSELTQDPAVSVALGQTVRITCQGDSLRRFYASWHQQKPGQAPIVVMYAENNRPSGIPDRFSGSSSGNTASLTITGAQAEDEATYYCNSRDSSGNRHVFGTGTKLTVL
notes: His-tagged
For B8, the Kd in assay [1] turned out to be 7.41 nM. For the same molecule, the strep/HRP in assay [2] worked out at 0.113. In addition, in assay [3], the “anti His/HRP” value was found to be 2.42. The cell binding in assay [4] was found to be 553000; in assay [5], 57300; in assay [6] it was 20700.

B9: 37-TC7-VII-D05 (scFv)
scFv: QMQLVQSGGGVVQPGRSLRLSCAASGFTFSSYAMHWVRQAPGKGLEWVAVISYDGSNKYYADSVKGRFTISRDNSKNTLYLQMNSLRAEDTAVYYCARDALWDTATFDYWGQGTLVTVSSGGSGGSGGSGGSSSELTQDPAVSVALGQTVRITCQGDSLRSYYASWYQQKPGQAPVLVIYGKNNRPSGIPDRFSGSSSGNTASLTITGAQAEDEADYYCNSRDSSGNPWVFGGGTKLTVL
notes: His-tagged
For B9, in assay [1], the Kd stood at 5640 nM. In assay [2], the strep/HRP came to 0.655. In addition, the “anti His/HRP” value in assay [3] was 2.28. The cell binding in assay [4] came out at 111000; in assay [5] it was 11000; in assay [6] it was 15900.

B10: 53-TC7-VI-B06 (scFv)
scFv: EVQLLESGGGVVQPGRSLRLSCAASGFTFSSYGMHWVRQAPGKGLEWVAVISYDGSNKYYADSVKGRFTISRDNSKNTLYLQMNSLRAEDTAVYYCAKGELELTNWGQGTLVTVSSGGSGGSGGSGGSSYELTQPPSVSVAPGQTARITCGGNNIGSKSVHWYQQKSGQAPVLVVYDDTDRPSGTPERFSGSNSGNTATLTISGTQAMDEADYYCQAWDSSTAVFGTGTKVTVL
notes: His-tagged
B10: the Kd in assay [1] came out at 235 nM. Also, the strep/HRP in assay [2] was found to be 1.44. For the same molecule, in assay [3], the “anti His/HRP” value was found to be 1.38. For the same molecule, the cell binding in assay [4] is 12200; in assay [5], 1830; in assay [6], 1170.

B11: 13-TC7-V-H10 (scFv)
scFv: QVQLQQWGAGLLKPSETLSLTCAVYGGSFSGYYWSWIRQPPGKGLEWIGEINHSGSTNYNPSLKSRVTISVDTSKNQFSLKLSSVTAADTAVYYCARSRRPYWYFDLWGRGTLVTVSSGGSGGSGGSGGSQSALTQPASVSGSPGQSITISCTGTSSDVGGYNSVSWYRQHPGKAPKLMIYDVTNRPSGVSNRFSGSKSGNTASLTISGLQAEDEADYYCSSSSISATWVFGGGTKLTVL
notes: His-tagged
For the molecule B11, the Kd in assay [1] is 66.9 nM. The strep/HRP in assay [2] turned out to be 1.38. In addition, in assay [3], the “anti His/HRP” value is 1.97. Further, the figures for the cell binding in assay [4], in assay [5] and in assay [6] were 601000, 87500 and 34300, respectively.
